Experiments:
Assay type in all cases: biochemical
[1] = target: T1, CDK1/cyclinB (Homo sapiens, UniProt P06493); assay: Millipore radiometric kinase activity assay, CDK1/cyclinB (h)
T1 construct: purchased Millipore (assay service)
Protocol: (§1) A commercial radiometric assay service (Millipore, Billerica, Mass.) was used to test the specificity and potency of peptides containing a coupled transduction domain and therapeutic domain, hereinafter “complete peptides”). In these assays, if the kinase is not inhibited by an inhibitor peptide, a positively charged substrate is phosphorylated with a radiolabeled phosphate group from an ATP.
(§2) In a final reaction volume of 25 μL, CDK1/cyclinB (h) (5-10 mU) is incubated with 8 mM MOPS pH 7.0, 0.2 mM EDTA, 0.1 mg/mL histone H1, 10 mM MgAcetate and [γ-^33P-ATP] (specific activity approx. 500 cpm/pmol, concentration as required). The reaction is initiated by the addition of the MgATP mix. After incubation for 40 minutes at room temperature, the reaction is stopped by the addition of 5 μL of a 3% phosphoric acid solution. 10 μL of the reaction is then spotted onto a P30 filtermat and washed three times for 5 minutes in 75 mM phosphoric acid and once in methanol prior to drying and scintillation counting.
(§3) IC50 values for inhibitor peptides were determined using Millipore's IC50Profiler Express service. The IC50 value was estimated from a 10-point curve of one-half log dilutions. For peptides tested for specificity, the concentration of the peptides that inhibited approximately 95% of MK2 activity was chosen to profile against a battery of kinases related to MK2, cell viability, or human disease from MilliporeKinaseProfiler service. In both assays, compounds were supplied in dimethylsulfoxide (DMSO). Every kinase activity measurement was conducted in duplicate.
(§4) Therapeutic inhibitor peptides were assayed for activity against human kinases related to MK2, cell viability, or human disease. The assays were performed using concentrations of therapeutic inhibitor peptides that yielded 2% to 8% of normal MK2 activity. Error is reported as the standard deviation between 2 samples, and “c” is rat AMPK whereas all other kinases used are human kinases.

[2] = target: T2, CK1δ (Homo sapiens, UniProt P48730); assay: Millipore radiometric kinase activity assay, CK1δ (h)
T2 construct: purchased Millipore (assay service)
Protocol: as §1
as §2, with “CK1δ” for “CDK1/cyclinB”, “200 μM KRRRALS(p)VASLPGL [SEQ ID NO: 54],” for “0.1 mg/mL histone H1,”
as §3, §4

[3] = target: T3, DYRK2 (Homo sapiens, UniProt Q92630); assay: Millipore radiometric kinase activity assay, DYRK2 (h)
T3 construct: purchased Millipore (assay service)
T3 sequence (Q92630 1-601): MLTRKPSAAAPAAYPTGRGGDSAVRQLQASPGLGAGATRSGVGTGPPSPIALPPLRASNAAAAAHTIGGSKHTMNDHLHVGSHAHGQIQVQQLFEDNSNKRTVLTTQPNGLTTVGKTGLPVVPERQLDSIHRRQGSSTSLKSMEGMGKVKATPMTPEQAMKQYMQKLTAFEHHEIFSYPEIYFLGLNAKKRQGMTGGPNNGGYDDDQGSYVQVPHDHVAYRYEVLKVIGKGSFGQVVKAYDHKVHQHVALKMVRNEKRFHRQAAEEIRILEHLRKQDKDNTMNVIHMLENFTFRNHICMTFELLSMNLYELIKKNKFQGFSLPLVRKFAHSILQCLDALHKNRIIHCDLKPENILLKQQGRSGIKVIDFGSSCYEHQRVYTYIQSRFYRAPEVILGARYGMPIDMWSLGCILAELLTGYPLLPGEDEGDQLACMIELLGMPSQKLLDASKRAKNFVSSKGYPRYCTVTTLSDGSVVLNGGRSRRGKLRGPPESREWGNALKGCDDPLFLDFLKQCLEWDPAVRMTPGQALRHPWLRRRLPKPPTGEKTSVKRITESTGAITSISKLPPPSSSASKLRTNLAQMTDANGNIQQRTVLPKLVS
Protocol: as §1
(§5) In a final reaction volume of 25 μL, DYRK2 (h) (5-10 mU) is incubated with 8 mM MOPS pH 7.0, 0.2 mM EDTA, 2 mg/mL casein, 10 mM MgAcetate and [γ-^33P-ATP] (specific activity approx. 500 cpm/pmol, concentration as required). The reaction is initiated by the addition of the MgATP mix. After incubation for 40 minutes at room temperature, the reaction is stopped by the addition of 5 μL, of a 3% phosphoric acid solution. 10 μL of the reaction is then spotted onto a P30 filtermat and washed three times for 5 minutes in 75 mM phosphoric acid and once in methanol prior to drying and scintillation counting.
as §3, §4

[4] = target: T4, Ret (Homo sapiens, UniProt P07949); assay: Millipore radiometric kinase activity assay, Ret (h); conditions: peptide 100 μM
T4 construct: purchased Millipore (radiometric assay service)
Protocol: as §1
as §5, with “25 μL, Ret (h) (5-10” for “25 μL, DYRK2 (h) (5-10”, “mM EDTA, 250 μM […] [SEQ ID NO: 56], 10 mM” for “mM EDTA, 2 mg/mL casein, 10 mM”, “of 5 μl, of a” for “of 5 μL, of a”
IC50 values for inhibitor peptides were determined using Millipore's IC50Profiler Express service. The IC50 value was estimated from a 10-point curve of one-half log dilutions. […]

[5] = target: T5, TrkA (Homo sapiens, UniProt P04629); assay: Millipore radiometric kinase activity assay, TrkA (h)
T5 construct: purchased Millipore (radiometric assay service)
Protocol: as §1
as §5, with “25 μL, TrkA (h) (5-10” for “25 μL, DYRK2 (h) (5-10”, “mM EDTA, 250 μM […] [SEQ ID NO: 56], 10 mM” for “mM EDTA, 2 mg/mL casein, 10 mM”, “of 5 μL of a” for “of 5 μL, of a”
as §3, §4

T5 sequence (P04629 33-796): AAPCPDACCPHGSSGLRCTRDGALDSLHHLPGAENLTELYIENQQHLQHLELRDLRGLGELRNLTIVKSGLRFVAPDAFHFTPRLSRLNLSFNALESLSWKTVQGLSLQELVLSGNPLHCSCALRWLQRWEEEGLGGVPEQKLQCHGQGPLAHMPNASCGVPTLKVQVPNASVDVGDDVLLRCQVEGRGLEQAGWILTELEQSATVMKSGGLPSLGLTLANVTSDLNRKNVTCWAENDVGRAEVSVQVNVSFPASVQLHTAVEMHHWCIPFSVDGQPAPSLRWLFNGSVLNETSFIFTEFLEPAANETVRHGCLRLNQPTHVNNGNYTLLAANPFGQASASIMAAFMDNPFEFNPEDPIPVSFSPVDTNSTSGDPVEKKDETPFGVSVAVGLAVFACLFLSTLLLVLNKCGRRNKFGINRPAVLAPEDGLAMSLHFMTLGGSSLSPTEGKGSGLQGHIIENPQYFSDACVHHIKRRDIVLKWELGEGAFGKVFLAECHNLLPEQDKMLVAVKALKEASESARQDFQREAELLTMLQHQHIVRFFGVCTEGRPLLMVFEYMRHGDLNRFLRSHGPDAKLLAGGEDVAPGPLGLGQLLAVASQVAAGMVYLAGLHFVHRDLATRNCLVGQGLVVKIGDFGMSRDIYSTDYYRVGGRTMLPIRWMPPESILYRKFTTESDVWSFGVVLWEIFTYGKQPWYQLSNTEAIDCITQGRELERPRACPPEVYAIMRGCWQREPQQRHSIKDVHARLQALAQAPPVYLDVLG
T2 sequence (P48730 whole entry): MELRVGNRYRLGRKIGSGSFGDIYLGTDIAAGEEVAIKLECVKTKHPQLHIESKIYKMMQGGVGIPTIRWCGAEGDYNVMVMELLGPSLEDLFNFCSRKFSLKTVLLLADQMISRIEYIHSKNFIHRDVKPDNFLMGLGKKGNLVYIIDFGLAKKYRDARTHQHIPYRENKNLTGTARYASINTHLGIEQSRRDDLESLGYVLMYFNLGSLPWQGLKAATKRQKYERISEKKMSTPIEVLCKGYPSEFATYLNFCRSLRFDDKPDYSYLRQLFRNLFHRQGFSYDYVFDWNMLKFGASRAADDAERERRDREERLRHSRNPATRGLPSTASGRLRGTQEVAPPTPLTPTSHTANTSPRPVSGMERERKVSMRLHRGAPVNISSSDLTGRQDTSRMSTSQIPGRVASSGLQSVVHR
T1 sequence (P06493 whole entry): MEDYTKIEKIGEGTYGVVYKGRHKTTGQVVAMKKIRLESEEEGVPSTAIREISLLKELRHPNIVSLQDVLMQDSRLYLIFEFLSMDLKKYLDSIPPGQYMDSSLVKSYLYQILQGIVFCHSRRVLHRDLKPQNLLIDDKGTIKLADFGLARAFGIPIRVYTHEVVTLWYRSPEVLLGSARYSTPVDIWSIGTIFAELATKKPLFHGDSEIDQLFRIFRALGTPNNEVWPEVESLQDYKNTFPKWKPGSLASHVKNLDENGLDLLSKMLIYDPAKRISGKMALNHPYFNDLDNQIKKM
T1 sequence (P14635 whole entry partner): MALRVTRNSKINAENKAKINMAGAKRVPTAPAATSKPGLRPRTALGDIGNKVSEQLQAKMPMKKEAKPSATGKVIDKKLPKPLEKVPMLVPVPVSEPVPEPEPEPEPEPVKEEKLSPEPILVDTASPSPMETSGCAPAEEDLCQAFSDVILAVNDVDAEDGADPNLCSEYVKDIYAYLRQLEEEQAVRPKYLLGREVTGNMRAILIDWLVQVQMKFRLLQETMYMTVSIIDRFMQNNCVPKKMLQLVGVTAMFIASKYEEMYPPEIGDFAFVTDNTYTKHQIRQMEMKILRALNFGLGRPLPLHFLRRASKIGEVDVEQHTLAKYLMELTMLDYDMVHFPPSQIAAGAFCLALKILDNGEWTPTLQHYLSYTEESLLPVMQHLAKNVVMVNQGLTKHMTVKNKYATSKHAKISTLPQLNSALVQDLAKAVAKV
T4 sequence (P07949 29-1114): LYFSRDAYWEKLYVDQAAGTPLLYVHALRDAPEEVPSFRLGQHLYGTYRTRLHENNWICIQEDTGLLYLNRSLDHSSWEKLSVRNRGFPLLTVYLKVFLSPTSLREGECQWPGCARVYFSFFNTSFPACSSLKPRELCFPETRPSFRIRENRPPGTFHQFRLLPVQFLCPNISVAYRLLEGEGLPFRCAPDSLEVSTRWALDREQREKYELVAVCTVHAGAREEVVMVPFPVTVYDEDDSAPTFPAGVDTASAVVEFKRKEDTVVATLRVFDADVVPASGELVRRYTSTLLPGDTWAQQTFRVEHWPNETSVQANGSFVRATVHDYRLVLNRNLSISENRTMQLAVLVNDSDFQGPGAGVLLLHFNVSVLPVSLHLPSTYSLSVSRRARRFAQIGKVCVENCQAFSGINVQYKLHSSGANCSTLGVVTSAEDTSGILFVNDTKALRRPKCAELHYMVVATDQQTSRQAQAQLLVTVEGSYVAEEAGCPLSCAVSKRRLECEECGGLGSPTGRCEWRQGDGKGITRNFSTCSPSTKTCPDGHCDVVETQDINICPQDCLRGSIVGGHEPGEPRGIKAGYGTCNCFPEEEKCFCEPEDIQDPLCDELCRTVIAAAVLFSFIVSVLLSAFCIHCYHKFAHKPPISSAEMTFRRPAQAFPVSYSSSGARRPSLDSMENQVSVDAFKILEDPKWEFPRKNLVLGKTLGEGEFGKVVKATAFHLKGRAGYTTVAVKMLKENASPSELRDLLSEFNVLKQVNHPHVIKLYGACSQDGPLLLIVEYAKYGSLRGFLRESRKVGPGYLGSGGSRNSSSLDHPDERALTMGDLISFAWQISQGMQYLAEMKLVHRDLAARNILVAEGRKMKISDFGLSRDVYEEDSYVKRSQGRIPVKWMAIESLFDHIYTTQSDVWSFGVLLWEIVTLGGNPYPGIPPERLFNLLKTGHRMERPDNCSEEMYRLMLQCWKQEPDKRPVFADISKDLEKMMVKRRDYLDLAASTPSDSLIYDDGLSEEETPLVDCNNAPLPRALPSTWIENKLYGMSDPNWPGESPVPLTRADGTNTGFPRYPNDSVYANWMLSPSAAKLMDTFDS

Sequence | CDK1/cyclin B Kinase Activity (%) (+SD %) ([1]; peptide 100 μM) | CK1δ Kinase Activity (%) (+SD %) ([2]; peptide 100 μM) | DYRK2 Kinase Activity (%) (+SD %) ([3]; peptide 100 μM) | Ret Kinase Activity (%) (+SD %) [4] | TrkA Kinase Activity (%) (+SD %) ([5]; peptide 100 μM) | CDK1/cyclin B Kinase Activity (%) (+SD %) ([1]; peptide 30 μM) | CK1δ Kinase Activity (%) (+SD %) ([2]; peptide 30 μM) | DYRK2 Kinase Activity (%) (+SD %) ([3]; peptide 30 μM) | TrkA Kinase Activity (%) (+SD %) ([5]; peptide 30 μM)
KAFAKLAARLYRKALARQLGVAA | 55 (3) % | 97 (2) % | −10 (0) % | 107 (9) % | 16 (2) % | – | – | – | –
WLRRIKAWLRRIKALNRQLGVAA | 36 (2) % | 99 (3) % | −11 (1) % | 89 (0) % | 17 (2) % | 17 (0) % | 52 (1) % | 93 (8) % | 6 (1) %
